Assay results from publication PMC4517315, “Functional properties and structural characterization of rice δ^1-pyrroline-5-carboxylate reductase” (Frontiers in Plant Science, 2015).

Legend:
[1] = target: T1, rice δ^1-pyrroline-5-carboxylate reductase (Oryza sativa, UniProt Q8GT01); experiment: product inhibition of purified recombinant enzyme, NADH-dependent P5C reduction at […] nm; Lineweaver-Burk/non-linear regression; assay type: biochemical
T1 construct: gene Os01g0948400

[2] = target: rice (Oryza sativa L.) δ1-pyrroline-5-carboxylate (P5C) reductase, from pET151-OsP5CR, TEV-cleaved (Oryza sativa (japonica rice)); experiment: SEC; gel permeation on Superose 12 HR 10/30, 50 mM Tris-HCl pH 7.75, 250 mM NaCl, 100 uL of protein at 10 mg/mL, calibrated with molecular weight markers; identical elution patterns up to 1 M NaCl (data not shown); size of the oligomer from the apparent mass
[3] = target: Oryza sativa P5C reductase, from pMCSG68, for crystallization (Oryza sativa (japonica rice)); experiment: crystal structure; 3.40 Å, space group P2(1), two decamers in the asymmetric unit; crystals from 100 mM Tris-HCl pH 8.5, 200 mM MgCl2, 18% PEG 8000, 19°C; molecular replacement with a homology model based on PDB 2izz
purified protein [4] = substrate: NC(=O)C1=CN([C@@H]2O[C@H](COP(=O)(O)OP(=O)(O)OC[C@H]3O[C@@H](n4cnc5c(N)ncnc54)[C@H](O)[C@@H]3O)[C@@H](O)[C@H]2O)C=CC1; experiment: purified protein; settings: P5C binding is required to allow NADH to enter the active site; varied: cofactor
purified protein [5] = substrate: NC(=O)C1=CN([C@@H]2O[C@H](COP(=O)(O)OP(=O)(O)OC[C@H]3O[C@@H](n4cnc5c(N)ncnc54)[C@H](OP(=O)(O)O)[C@@H]3O)[C@@H](O)[C@H]2O)C=CC1; experiment: purified protein; settings: varied: cofactor
purified protein [6] = substrate: O=C(O)C1CCC=N1; experiment: purified protein; assay type: biochemical, Oryza sativa; settings: NADPH P5C binds before NADPH (ordered substrate binding)

**Q.** For `NC(=O)c1ccc[n+]([C@@H]2O[C@H](COP(=O)([O-])OP(=O)(O)OC[C@H]3O[C@@H](n4cnc5c(N)ncnc54)[C@H](OP(=O)(O)O)[C@@H]3O)[C@@H](O)[C@H]2O)c1` [NADP^+], which Ki [1] is on record?
**A.** Its Ki is 0.00773 ± 0.00069 mM.

**Q.** With “rice (Oryza sativa L.) δ1-pyrroline-5-carboxylate (P5C) reductase, from pET151-OsP5CR, TEV-cleaved (enzyme)” as the molecule, how does the stoichiometry N [2] read?
**A.** The stoichiometry N was 14 subunits.

**Q.** For “Oryza sativa P5C reductase, from pMCSG68, for crystallization (enzyme)”, which stoichiometry N [3] is on record?
**A.** The stoichiometry N was 10 subunits.

**Q.** How did the Ki [1] turn out when `O=C(O)[C@@H]1CCCN1` [L-proline] was run?
**A.** The Ki was 20.2 ± 1 mM.

B1: rice δ^1-pyrroline-5-carboxylate reductase (Oryza sativa Japonica Group) (protein)
chain: MAAPPQPVPAPAAASPEVFRLGFIGPGNLAESIARGVAASGVLPATAIRTAPHRRPERAEAFSSIGAHILETNAQVVDDSDVIVISVKPQIVRQVLVELKPLLSEEKLLVSIAAGIKMEDLQGWSGHRRFIRVMPNTPSAVGQAASVMCLGEMATENDENRVRSLFSAIGKVWTAEEKYFDAVTGLSGSGPAYIFLAIEAMADGGVAAGLPRDLALGLASQTVLGAATMVNKTGKHPGQLKDMVTSPAGTTITGIQELEKGAFRGTLINAVVAATKRCRELSQS
**Q.** How did the Km (purified protein [4]) turn out when B1 was run?
**A.** The Km was 806 ± 89 µM.

**Q.** And the Vmax (purified protein [4])?
**A.** The Vmax was 158.3 ± 13.2 μkat (mg protein)^-1.

**Q.** What about the Km (purified protein [5]) of the same molecule?
**A.** The Km was 49.4 ± 1.8 µM.

**Q.** And the Vmax (purified protein [5])?
**A.** Its Vmax is 11.68 ± 0.16 μkat (mg protein)^-1.

**Q.** And the Km (purified protein [6])?
**A.** Its Km is 28.8 ± 1.7 µM.
